These results are taken from paper PMC4406679.

This series concerns the target T1, His-OpaR (Vibrio parahaemolyticus BB22OP) (UniProt Q79YV4).
T1 sequence: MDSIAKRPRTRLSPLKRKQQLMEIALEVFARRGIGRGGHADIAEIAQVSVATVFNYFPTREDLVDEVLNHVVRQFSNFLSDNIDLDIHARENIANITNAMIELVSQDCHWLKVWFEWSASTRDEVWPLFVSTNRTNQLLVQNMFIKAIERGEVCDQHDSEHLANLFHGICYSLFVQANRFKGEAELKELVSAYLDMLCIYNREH
Put plainly: EMSA. Particulars: 10 mM Tris-HCl pH 7.5, 50 mM NaCl, 1 mM MgCl2, 0.5 mM EDTA, 0.5 mM DTT, 0.05 mg/ml poly d(I-C), 150 ug/ml BSA; temperature not stated. In general terms: In EMSA bound probe runs differently from free probe, usually more slowly.

Turning to “CTGTAAGTGAAGAATAATACCGAATGAAGTTTAAAGGCGCTCGAATGAGCGCCTTTTTTATTTGTCATGGAAAACGATAAGAACGAATATGCCGAACATTGAGATCATTCGCTTTAACCACTT (double strand) [araC family (VPBB_A0554) promoter]”, the binding entry was “no binding”.
